This note sets out measurements from patent US20020004485A1 (University of California, published 2002).

Assay [1] deals with atypical MC receptor of Cos-7 cells. Description: cell-based or functional assay.
Assay [2] has as its target MC receptor endogenous to Xenopus laevis melanophores (Xenopus laevis). As to the kind of experiment: cell-based or functional assay.

With SYSMEHFRWGKPV (ligand, UniProt P01189 138-150, looked up) [α-melanocyte stimulating hormone], the “EC50 of α-MSH for cAMP production in Cos-7 cells” value in assay [1] is around 80 nM. For the same molecule, the “EC50 of α-MSH alone in frog melanophores” value in assay [2] was determined as 0.03 nM.
